Drawing on the Human Domainome abundance scans (Beltran et al. 2025), this text covers abundance fitness for 40 variants.

The chains are these.
B1: RNA-binding E3 ubiquitin-protein ligase MEX3C, residues 325 to 391; numbered along this chain, Q5U5Q3 (parent)
chain: GQTTVQVRVPYRVVGLVVGPKGATIKRIQQQTHTYIVTPSRDKEPVFEVTGMPENVDRAREEIEMHI

± gives the uncertainty stated by the source.

Variants of B1 are the subject of the data set. Briefly: abundance fitness (aPCA) (normalised: wild type 0, dead -1); higher = more abundant; growth selection in yeast, the domain comes from the species named. The conditions noted are these: Homo sapiens.
In the case of GQTTVQVRVPYRVVGLVVGPKGATIKRIQQQTHTYIVTPSRDKEPPFEVTGMPENVDRAREEIEMHI, the abundance fitness was -0.66 ± 0.1.

With GQTTVQVRVPYRVVGLVVGPKGATIKRIQQQTHTYIVTPSRDKEPAFEVTGMPENVDRAREEIEMHI, the abundance fitness was -0.676 ± 0.083. The result for GQTTVQVRVPYRVVGLVVGPKGATIKRIQQQTHTYIVTPSRDKEPHFEVTGMPENVDRAREEIEMHI reads -0.579 ± 0.13. GQTTVQVRVPYRVVGLVVGPKGATIKRIQQQTHTYIVTPSRDKEPEFEVTGMPENVDRAREEIEMHI: the abundance fitness was -0.767 ± 0.11. As for GQTTVQVRVPYRVVGLVVGPKGATIKRIQQQTHTYIVTPSRDKEPYFEVTGMPENVDRAREEIEMHI, the abundance fitness was -0.146 ± 0.11. GQTTVQVRVPYRVVGLVVGPKGATIKRIQQQTHTYIVTPSRDKEPTFEVTGMPENVDRAREEIEMHI: the abundance fitness is -0.526 ± 0.1.

Turning to GQTTVQVRVPYRVVGLVVGPKGATIKRIQQQTHTYIVTPSRDKEPMFEVTGMPENVDRAREEIEMHI, the abundance fitness is -0.361 ± 0.081. With GQTTVQVRVPYRVVGLVVGPKGATIKRIQQQTHTYIVTPSRDKEPLFEVTGMPENVDRAREEIEMHI the figure was -0.332 ± 0.061; with GQTTVQVRVPYRVVGLVVGPKGATIKRIQQQTHTYIVTPSRDKEPSFEVTGMPENVDRAREEIEMHI, -0.774 ± 0.11; with GQTTVQVRVPYRVVGLVVGPKGATIKRIQQQTHTYIVTPSRDKEPGFEVTGMPENVDRAREEIEMHI, -0.7 ± 0.07. As for GQTTVQVRVPYRVVGLVVGPKGATIKRIQQQTHTYIVTPSRDKEPRFEVTGMPENVDRAREEIEMHI, the abundance fitness was -0.607 ± 0.078. In the case of GQTTVQVRVPYRVVGLVVGPKGATIKRIQQQTHTYIVTPSRDKEPCFEVTGMPENVDRAREEIEMHI, the abundance fitness was -0.645 ± 0.14. Regarding GQTTVQVRVPYRVVGLVVGPKGATIKRIQQQTHTYIVTPSRDKEPQFEVTGMPENVDRAREEIEMHI, the abundance fitness was -0.621 ± 0.13. Turning to GQTTVQVRVPYRVVGLVVGPKGATIKRIQQQTHTYIVTPSRDKEPFFEVTGMPENVDRAREEIEMHI, the abundance fitness is -0.503 ± 0.16. As for GQTTVQVRVPYRVVGLVVGPKGATIKRIQQQTHTYIVTPSRDKEPVFEATGMPENVDRAREEIEMHI, the abundance fitness is -0.682 ± 0.12.

Regarding GQTTVQVRVPYRVVGLVVGPKGATIKRIQQQTHTYIVTPSRDKEPVFEITGMPENVDRAREEIEMHI, the abundance fitness was found to be 0.129 ± 0.068. As to GQTTVQVRVPYRVVGLVVGPKGATIKRIQQQTHTYIVTPSRDKEPVFELTGMPENVDRAREEIEMHI, the abundance fitness was -0.62 ± 0.085. The result for GQTTVQVRVPYRVVGLVVGPKGATIKRIQQQTHTYIVTPSRDKEPVFEGTGMPENVDRAREEIEMHI reads -0.469 ± 0.066; that for GQTTVQVRVPYRVVGLVVGPKGATIKRIQQQTHTYIVTPSRDKEPVFENTGMPENVDRAREEIEMHI, -0.675 ± 0.43; that for GQTTVQVRVPYRVVGLVVGPKGATIKRIQQQTHTYIVTPSRDKEPVFEPTGMPENVDRAREEIEMHI, -1.34 ± 0.48. Consider GQTTVQVRVPYRVVGLVVGPKGATIKRIQQQTHTYIVTPSRDKEPVFEKTGMPENVDRAREEIEMHI, for which the abundance fitness was -0.702 ± 0.18. Take GQTTVQVRVPYRVVGLVVGPKGATIKRIQQQTHTYIVTPSRDKEPVFEDTGMPENVDRAREEIEMHI: the abundance fitness is -0.71 ± 0.34. As for GQTTVQVRVPYRVVGLVVGPKGATIKRIQQQTHTYIVTPSRDKEPVFECTGMPENVDRAREEIEMHI, the abundance fitness is -0.668 ± 0.2. Consider GQTTVQVRVPYRVVGLVVGPKGATIKRIQQQTHTYIVTPSRDKEPVFEMTGMPENVDRAREEIEMHI, for which the abundance fitness is -0.793 ± 0.21.

As to GQTTVQVRVPYRVVGLVVGPKGATIKRIQQQTHTYIVTPSRDKEPVFEFTGMPENVDRAREEIEMHI, the abundance fitness was -0.842 ± 0.4. With GQTTVQVRVPYRVVGLVVGPKGATIKRIQQQTHTYIVTPSRDKEPVFPVTGMPENVDRAREEIEMHI the figure was -0.771 ± 0.14; with GQTTVQVRVPYRVVGLVVGPKGATIKRIQQQTHTYIVTPSRDKEPVFDVTGMPENVDRAREEIEMHI, -0.534 ± 0.14; with GQTTVQVRVPYRVVGLVVGPKGATIKRIQQQTHTYIVTPSRDKEPVFFVTGMPENVDRAREEIEMHI, -0.068 ± 0.12.

Turning to GQTTVQVRVPYRVVGLVVGPKGATIKRIQQQTHTYIVTPSRDKEPVFVVTGMPENVDRAREEIEMHI, the abundance fitness was -0.292 ± 0.06.

For GQTTVQVRVPYRVVGLVVGPKGATIKRIQQQTHTYIVTPSRDKEPVFQVTGMPENVDRAREEIEMHI, the abundance fitness is -0.204 ± 0.095. The result for GQTTVQVRVPYRVVGLVVGPKGATIKRIQQQTHTYIVTPSRDKEPVFSVTGMPENVDRAREEIEMHI reads -0.245 ± 0.08; that for GQTTVQVRVPYRVVGLVVGPKGATIKRIQQQTHTYIVTPSRDKEPVFWVTGMPENVDRAREEIEMHI, -0.124 ± 0.067. The result for GQTTVQVRVPYRVVGLVVGPKGATIKRIQQQTHTYIVTPSRDKEPVFIVTGMPENVDRAREEIEMHI reads -0.007 ± 0.16; that for GQTTVQVRVPYRVVGLVVGPKGATIKRIQQQTHTYIVTPSRDKEPVFCVTGMPENVDRAREEIEMHI, -0.357 ± 0.1; that for GQTTVQVRVPYRVVGLVVGPKGATIKRIQQQTHTYIVTPSRDKEPVFLVTGMPENVDRAREEIEMHI, -0.029 ± 0.057. On to GQTTVQVRVPYRVVGLVVGPKGATIKRIQQQTHTYIVTPSRDKEPVFAVTGMPENVDRAREEIEMHI, for which the abundance fitness is -0.356 ± 0.064. Consider GQTTVQVRVPYRVVGLVVGPKGATIKRIQQQTHTYIVTPSRDKEPVFNVTGMPENVDRAREEIEMHI, for which the abundance fitness is -0.733 ± 0.43. With GQTTVQVRVPYRVVGLVVGPKGATIKRIQQQTHTYIVTPSRDKEPVFMVTGMPENVDRAREEIEMHI the figure was -0.04 ± 0.079.

Consider GQTTVQVRVPYRVVGLVVGPKGATIKRIQQQTHTYIVTPSRDKEPVFHVTGMPENVDRAREEIEMHI, for which the abundance fitness is -0.155 ± 0.14.

Consider GQTTVQVRVPYRVVGLVVGPKGATIKRIQQQTHTYIVTPSRDKEPVFGVTGMPENVDRAREEIEMHI, for which the abundance fitness is -0.748 ± 0.067.
